Starred links: 1 amine or outer side, 2 acyl side, 3 side chain; linkers in the order of their positions; H or OH if unused. Non-standard residues stand in square brackets, D forms with d. Groups on a side chain read outwards from the residue. No end group written: not given here. *: point of attachment. C18 diacid = O=C(O)CCCCCCCCCCCCCCCCC(=O)*; γGlu = O=C(O)[C@H](CCC(=O)[*:2])N[*:1]; AEEA = NCCOCCOCC(=O)O; Aib = CC(C)(N)C(=O)O
Biological target: human corticotropin-releasing factor 2α (CRF2 α receptor) (human), Q13324
Experiment: cell-based or functional assay

Chain of human corticotropin-releasing factor 2α (CRF2 α receptor) (human), Q13324 (Q13324 20-411): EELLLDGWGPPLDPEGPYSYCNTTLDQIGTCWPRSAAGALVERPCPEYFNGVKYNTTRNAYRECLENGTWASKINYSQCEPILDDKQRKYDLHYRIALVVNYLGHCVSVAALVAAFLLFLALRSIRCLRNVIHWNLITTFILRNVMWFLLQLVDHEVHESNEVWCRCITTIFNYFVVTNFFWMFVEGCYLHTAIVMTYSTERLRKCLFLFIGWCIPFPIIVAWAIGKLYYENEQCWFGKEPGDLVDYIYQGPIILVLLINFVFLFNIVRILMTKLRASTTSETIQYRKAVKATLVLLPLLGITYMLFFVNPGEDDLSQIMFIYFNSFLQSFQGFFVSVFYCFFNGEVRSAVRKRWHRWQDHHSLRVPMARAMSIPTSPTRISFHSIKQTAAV

Binder	EC50 [nM], 0% HSA [nM]	EC50 [nM], 0.1% HSA [nM]
FTLSLDVPTKIK([AEEA-AEEA-γGlu-C18 diacid])QILLKQQKQKKERQQAEKNKQLLEQI-NH2 (N-terminus assumed; SMILES CC[C@H](C)[C@H](NC(=O)[C@H](CCC(N)=O)NC(=O)[C@H](CCC(=O)O)NC(=O)[C@H](CC(C)C)NC(=O)[C@H](CC(C)C)NC(=O)[C@H](CCC(N)=O)NC(=O)[C@H](CCCCN)NC(=O)[C@H](CC(N)=O)NC(=O)[C@H](CCCCN)NC(=O)[C@H](CCC(=O)O)NC(=O)[C@H](C)NC(=O)[C@H](CCC(N)=O)NC(=O)[C@H](CCC(N)=O)NC(=O)[C@H](CCCNC(=N)N)NC(=O)[C@H](CCC(=O)O)NC(=O)[C@H](CCCCN)NC(=O)[C@H](CCCCN)NC(=O)[C@H](CCC(N)=O)NC(=O)[C@H](CCCCN)NC(=O)[C@H](CCC(N)=O)NC(=O)[C@H](CCC(N)=O)NC(=O)[C@H](CCCCN)NC(=O)[C@H](CC(C)C)NC(=O)[C@H](CC(C)C)NC(=O)[C@@H](NC(=O)[C@H](CCC(N)=O)NC(=O)[C@H](CCCCNC(=O)COCCOCCNC(=O)COCCOCCNC(=O)CC[C@H](NC(=O)CCCCCCCCCCCCCCCCC(=O)O)C(=O)O)NC(=O)[C@@H](NC(=O)[C@H](CCCCN)NC(=O)[C@@H](NC(=O)[C@@H]1CCCN1C(=O)[C@@H](NC(=O)[C@H](CC(=O)O)NC(=O)[C@H](CC(C)C)NC(=O)[C@H](CO)NC(=O)[C@H](CC(C)C)NC(=O)[C@@H](NC(=O)[C@@H](N)Cc1ccccc1)[C@@H](C)O)C(C)C)[C@@H](C)O)[C@@H](C)CC)[C@@H](C)CC)C(N)=O) [SEQ ID NO: 51]	0.32	21.4
IVLSLDVPTKLK([AEEA-AEEA-γGlu-C18 diacid])QILLKQERQR[Aib]ERQQAETNVRILERV-NH2 (N-terminus assumed; SMILES CC[C@H](C)[C@H](N)C(=O)N[C@H](C(=O)N[C@@H](CC(C)C)C(=O)N[C@@H](CO)C(=O)N[C@@H](CC(C)C)C(=O)N[C@@H](CC(=O)O)C(=O)N[C@H](C(=O)N1CCC[C@H]1C(=O)N[C@H](C(=O)N[C@@H](CCCCN)C(=O)N[C@@H](CC(C)C)C(=O)N[C@@H](CCCCNC(=O)COCCOCCNC(=O)COCCOCCNC(=O)CC[C@H](NC(=O)CCCCCCCCCCCCCCCCC(=O)O)C(=O)O)C(=O)N[C@@H](CCC(N)=O)C(=O)N[C@H](C(=O)N[C@@H](CC(C)C)C(=O)N[C@@H](CC(C)C)C(=O)N[C@@H](CCCCN)C(=O)N[C@@H](CCC(N)=O)C(=O)N[C@@H](CCC(=O)O)C(=O)N[C@@H](CCCNC(=N)N)C(=O)N[C@@H](CCC(N)=O)C(=O)N[C@@H](CCCNC(=N)N)C(=O)NC(C)(C)C(=O)N[C@@H](CCC(=O)O)C(=O)N[C@@H](CCCNC(=N)N)C(=O)N[C@@H](CCC(N)=O)C(=O)N[C@@H](CCC(N)=O)C(=O)N[C@@H](C)C(=O)N[C@@H](CCC(=O)O)C(=O)N[C@H](C(=O)N[C@@H](CC(N)=O)C(=O)N[C@H](C(=O)N[C@@H](CCCNC(=N)N)C(=O)N[C@H](C(=O)N[C@@H](CC(C)C)C(=O)N[C@@H](CCC(=O)O)C(=O)N[C@@H](CCCNC(=N)N)C(=O)N[C@H](C(N)=O)C(C)C)[C@@H](C)CC)C(C)C)[C@@H](C)O)[C@@H](C)CC)[C@@H](C)O)C(C)C)C(C)C) [SEQ ID NO: 50]	17.2	
FTLSLDVPTKIK([AEEA-AEEA-γGlu-C18 diacid])QILLKQQKQKKERQQAEKNKQLLERV-NH2 (N-terminus assumed; SMILES CC[C@H](C)[C@H](NC(=O)[C@H](CCC(N)=O)NC(=O)[C@H](CCCCNC(=O)COCCOCCNC(=O)COCCOCCNC(=O)CC[C@H](NC(=O)CCCCCCCCCCCCCCCCC(=O)O)C(=O)O)NC(=O)[C@@H](NC(=O)[C@H](CCCCN)NC(=O)[C@@H](NC(=O)[C@@H]1CCCN1C(=O)[C@@H](NC(=O)[C@H](CC(=O)O)NC(=O)[C@H](CC(C)C)NC(=O)[C@H](CO)NC(=O)[C@H](CC(C)C)NC(=O)[C@@H](NC(=O)[C@@H](N)Cc1ccccc1)[C@@H](C)O)C(C)C)[C@@H](C)O)[C@@H](C)CC)C(=O)N[C@@H](CC(C)C)C(=O)N[C@@H](CC(C)C)C(=O)N[C@@H](CCCCN)C(=O)N[C@@H](CCC(N)=O)C(=O)N[C@@H](CCC(N)=O)C(=O)N[C@@H](CCCCN)C(=O)N[C@@H](CCC(N)=O)C(=O)N[C@@H](CCCCN)C(=O)N[C@@H](CCCCN)C(=O)N[C@@H](CCC(=O)O)C(=O)N[C@@H](CCCNC(=N)N)C(=O)N[C@@H](CCC(N)=O)C(=O)N[C@@H](CCC(N)=O)C(=O)N[C@@H](C)C(=O)N[C@@H](CCC(=O)O)C(=O)N[C@@H](CCCCN)C(=O)N[C@@H](CC(N)=O)C(=O)N[C@@H](CCCCN)C(=O)N[C@@H](CCC(N)=O)C(=O)N[C@@H](CC(C)C)C(=O)N[C@@H](CC(C)C)C(=O)N[C@@H](CCC(=O)O)C(=O)N[C@@H](CCCNC(=N)N)C(=O)N[C@H](C(N)=O)C(C)C) [SEQ ID NO: 52]	0.7	45.8

Next, values leading:

EC50 [nM], 0% HSA [nM]	EC50 [nM], 0.1% HSA [nM]	Binder
0.57	24.5	FTLSLDVPIKLK([AEEA-AEEA-γGlu-C18 diacid])QILLKQQKQKKERQQAETNVQLLERV-NH2 (N-terminus assumed; SMILES CC[C@H](C)[C@H](NC(=O)[C@H](CCC(N)=O)NC(=O)[C@H](CCCCNC(=O)COCCOCCNC(=O)COCCOCCNC(=O)CC[C@H](NC(=O)CCCCCCCCCCCCCCCCC(=O)O)C(=O)O)NC(=O)[C@H](CC(C)C)NC(=O)[C@H](CCCCN)NC(=O)[C@@H](NC(=O)[C@@H]1CCCN1C(=O)[C@@H](NC(=O)[C@H](CC(=O)O)NC(=O)[C@H](CC(C)C)NC(=O)[C@H](CO)NC(=O)[C@H](CC(C)C)NC(=O)[C@@H](NC(=O)[C@@H](N)Cc1ccccc1)[C@@H](C)O)C(C)C)[C@@H](C)CC)C(=O)N[C@@H](CC(C)C)C(=O)N[C@@H](CC(C)C)C(=O)N[C@@H](CCCCN)C(=O)N[C@@H](CCC(N)=O)C(=O)N[C@@H](CCC(N)=O)C(=O)N[C@@H](CCCCN)C(=O)N[C@@H](CCC(N)=O)C(=O)N[C@@H](CCCCN)C(=O)N[C@@H](CCCCN)C(=O)N[C@@H](CCC(=O)O)C(=O)N[C@@H](CCCNC(=N)N)C(=O)N[C@@H](CCC(N)=O)C(=O)N[C@@H](CCC(N)=O)C(=O)N[C@@H](C)C(=O)N[C@@H](CCC(=O)O)C(=O)N[C@H](C(=O)N[C@@H](CC(N)=O)C(=O)N[C@H](C(=O)N[C@@H](CCC(N)=O)C(=O)N[C@@H](CC(C)C)C(=O)N[C@@H](CC(C)C)C(=O)N[C@@H](CCC(=O)O)C(=O)N[C@@H](CCCNC(=N)N)C(=O)N[C@H](C(N)=O)C(C)C)C(C)C)[C@@H](C)O) [SEQ ID NO: 54]
48.5		FTLSLDVPTKIK([AEEA-AEEA-γGlu-C18 diacid])QILLKQQKQKKERQKAETNVQLLERV-NH2 (N-terminus assumed; SMILES CC[C@H](C)[C@H](NC(=O)[C@H](CCC(N)=O)NC(=O)[C@H](CCCCNC(=O)COCCOCCNC(=O)COCCOCCNC(=O)CC[C@H](NC(=O)CCCCCCCCCCCCCCCCC(=O)O)C(=O)O)NC(=O)[C@@H](NC(=O)[C@H](CCCCN)NC(=O)[C@@H](NC(=O)[C@@H]1CCCN1C(=O)[C@@H](NC(=O)[C@H](CC(=O)O)NC(=O)[C@H](CC(C)C)NC(=O)[C@H](CO)NC(=O)[C@H](CC(C)C)NC(=O)[C@@H](NC(=O)[C@@H](N)Cc1ccccc1)[C@@H](C)O)C(C)C)[C@@H](C)O)[C@@H](C)CC)C(=O)N[C@@H](CC(C)C)C(=O)N[C@@H](CC(C)C)C(=O)N[C@@H](CCCCN)C(=O)N[C@@H](CCC(N)=O)C(=O)N[C@@H](CCC(N)=O)C(=O)N[C@@H](CCCCN)C(=O)N[C@@H](CCC(N)=O)C(=O)N[C@@H](CCCCN)C(=O)N[C@@H](CCCCN)C(=O)N[C@@H](CCC(=O)O)C(=O)N[C@@H](CCCNC(=N)N)C(=O)N[C@@H](CCC(N)=O)C(=O)N[C@@H](CCCCN)C(=O)N[C@@H](C)C(=O)N[C@@H](CCC(=O)O)C(=O)N[C@H](C(=O)N[C@@H](CC(N)=O)C(=O)N[C@H](C(=O)N[C@@H](CCC(N)=O)C(=O)N[C@@H](CC(C)C)C(=O)N[C@@H](CC(C)C)C(=O)N[C@@H](CCC(=O)O)C(=O)N[C@@H](CCCNC(=N)N)C(=O)N[C@H](C(N)=O)C(C)C)C(C)C)[C@@H](C)O) [SEQ ID NO: 55]
1.01	55.1	FTLSLDVPTKIK([AEEA-AEEA-γGlu-C18 diacid])QILLKQQKQKKERQQAETNKQLLERV-NH2 (N-terminus assumed; SMILES CC[C@H](C)[C@H](NC(=O)[C@H](CCC(N)=O)NC(=O)[C@H](CCCCNC(=O)COCCOCCNC(=O)COCCOCCNC(=O)CC[C@H](NC(=O)CCCCCCCCCCCCCCCCC(=O)O)C(=O)O)NC(=O)[C@@H](NC(=O)[C@H](CCCCN)NC(=O)[C@@H](NC(=O)[C@@H]1CCCN1C(=O)[C@@H](NC(=O)[C@H](CC(=O)O)NC(=O)[C@H](CC(C)C)NC(=O)[C@H](CO)NC(=O)[C@H](CC(C)C)NC(=O)[C@@H](NC(=O)[C@@H](N)Cc1ccccc1)[C@@H](C)O)C(C)C)[C@@H](C)O)[C@@H](C)CC)C(=O)N[C@@H](CC(C)C)C(=O)N[C@@H](CC(C)C)C(=O)N[C@@H](CCCCN)C(=O)N[C@@H](CCC(N)=O)C(=O)N[C@@H](CCC(N)=O)C(=O)N[C@@H](CCCCN)C(=O)N[C@@H](CCC(N)=O)C(=O)N[C@@H](CCCCN)C(=O)N[C@@H](CCCCN)C(=O)N[C@@H](CCC(=O)O)C(=O)N[C@@H](CCCNC(=N)N)C(=O)N[C@@H](CCC(N)=O)C(=O)N[C@@H](CCC(N)=O)C(=O)N[C@@H](C)C(=O)N[C@@H](CCC(=O)O)C(=O)N[C@H](C(=O)N[C@@H](CC(N)=O)C(=O)N[C@@H](CCCCN)C(=O)N[C@@H](CCC(N)=O)C(=O)N[C@@H](CC(C)C)C(=O)N[C@@H](CC(C)C)C(=O)N[C@@H](CCC(=O)O)C(=O)N[C@@H](CCCNC(=N)N)C(=O)N[C@H](C(N)=O)C(C)C)[C@@H](C)O) [SEQ ID NO: 53]

Reference: patent US12679878B2, “CRF2 receptor agonists and their use in therapy” (SANOFI, priority 2020, dated 2026)
